Source: publication doi:10.1101/2023.03.24.534125 (bioRxiv, 2023)

Molecular target: T1, CRISPR array binding protein 1, Cbp1 (S. solfataricus P2, SSO0454) (S. solfataricus P2, UniProt Q97ZW9 1-150)
T1 sequence (looked up): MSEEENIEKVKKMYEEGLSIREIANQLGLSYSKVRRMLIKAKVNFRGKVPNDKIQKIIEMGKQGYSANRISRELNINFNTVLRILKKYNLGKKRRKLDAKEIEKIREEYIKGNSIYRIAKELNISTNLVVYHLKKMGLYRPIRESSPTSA
Assay: native gel or EMSA

stoichiometry N: 2
B1: Cren7 (S. solfataricus, SSO6901) (natural protein, UniProt Q97ZE3 1-60, looked up)
chain: MSSGKKPVKVKTPAGKEAELVPEKVWALAPKGRKGVKIGLFKDPETGKYFRHKLPDDYPI
